In patent publication US20240301052A1 (LANOVA MEDICINES DEVELOPMENT, published 2024):
Read-outs that look alike come from different tables or passages of the source.

T1: mouse SLC34A2 (mouse, UniProt Q9DBP0 1-697)
T1 construct: whole, on cells
T1 sequence (looked up): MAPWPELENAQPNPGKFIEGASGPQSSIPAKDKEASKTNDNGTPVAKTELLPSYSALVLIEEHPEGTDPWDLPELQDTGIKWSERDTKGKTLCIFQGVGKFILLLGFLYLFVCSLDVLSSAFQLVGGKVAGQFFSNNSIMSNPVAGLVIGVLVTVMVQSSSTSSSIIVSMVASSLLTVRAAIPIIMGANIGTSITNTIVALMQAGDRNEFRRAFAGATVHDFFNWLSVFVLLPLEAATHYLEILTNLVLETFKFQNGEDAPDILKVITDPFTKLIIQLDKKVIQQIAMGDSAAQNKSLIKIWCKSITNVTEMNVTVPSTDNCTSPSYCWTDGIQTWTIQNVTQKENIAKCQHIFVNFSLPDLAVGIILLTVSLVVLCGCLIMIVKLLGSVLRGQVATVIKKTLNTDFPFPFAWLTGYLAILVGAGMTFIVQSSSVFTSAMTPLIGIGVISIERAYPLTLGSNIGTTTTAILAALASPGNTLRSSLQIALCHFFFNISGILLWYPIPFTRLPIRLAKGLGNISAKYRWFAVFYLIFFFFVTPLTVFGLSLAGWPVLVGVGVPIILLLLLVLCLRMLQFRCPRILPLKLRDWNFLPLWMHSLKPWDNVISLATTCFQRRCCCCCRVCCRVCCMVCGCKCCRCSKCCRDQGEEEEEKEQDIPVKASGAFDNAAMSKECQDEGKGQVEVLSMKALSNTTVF

T2: Rhesus SLC34A2 (Rhesus, UniProt F7HDA3 1-690)
T2 construct: whole, on cells
T2 sequence: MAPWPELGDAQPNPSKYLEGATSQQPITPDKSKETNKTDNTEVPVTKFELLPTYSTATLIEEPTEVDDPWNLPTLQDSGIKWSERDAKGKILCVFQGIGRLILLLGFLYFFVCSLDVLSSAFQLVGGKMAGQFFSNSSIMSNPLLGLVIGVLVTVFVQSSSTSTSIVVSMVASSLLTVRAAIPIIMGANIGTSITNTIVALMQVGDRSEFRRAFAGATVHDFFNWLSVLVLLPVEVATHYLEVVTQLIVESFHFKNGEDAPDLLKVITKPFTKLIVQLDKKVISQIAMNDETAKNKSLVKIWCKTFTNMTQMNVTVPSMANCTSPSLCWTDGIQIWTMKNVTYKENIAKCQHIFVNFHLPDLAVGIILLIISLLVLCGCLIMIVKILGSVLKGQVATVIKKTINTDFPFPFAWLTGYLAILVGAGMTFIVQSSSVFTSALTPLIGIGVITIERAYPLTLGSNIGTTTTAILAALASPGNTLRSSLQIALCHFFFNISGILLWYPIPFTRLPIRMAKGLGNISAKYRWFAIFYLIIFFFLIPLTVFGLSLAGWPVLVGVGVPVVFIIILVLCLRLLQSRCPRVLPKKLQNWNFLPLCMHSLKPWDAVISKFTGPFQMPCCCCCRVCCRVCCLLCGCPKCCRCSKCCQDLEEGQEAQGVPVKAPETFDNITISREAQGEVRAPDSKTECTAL

T3: human SLC34A2 (human, UniProt O95436 1-690)
T3 construct: whole, on cells; also called human solute carrier 34 A2; NaPi2b
T3 sequence (looked up): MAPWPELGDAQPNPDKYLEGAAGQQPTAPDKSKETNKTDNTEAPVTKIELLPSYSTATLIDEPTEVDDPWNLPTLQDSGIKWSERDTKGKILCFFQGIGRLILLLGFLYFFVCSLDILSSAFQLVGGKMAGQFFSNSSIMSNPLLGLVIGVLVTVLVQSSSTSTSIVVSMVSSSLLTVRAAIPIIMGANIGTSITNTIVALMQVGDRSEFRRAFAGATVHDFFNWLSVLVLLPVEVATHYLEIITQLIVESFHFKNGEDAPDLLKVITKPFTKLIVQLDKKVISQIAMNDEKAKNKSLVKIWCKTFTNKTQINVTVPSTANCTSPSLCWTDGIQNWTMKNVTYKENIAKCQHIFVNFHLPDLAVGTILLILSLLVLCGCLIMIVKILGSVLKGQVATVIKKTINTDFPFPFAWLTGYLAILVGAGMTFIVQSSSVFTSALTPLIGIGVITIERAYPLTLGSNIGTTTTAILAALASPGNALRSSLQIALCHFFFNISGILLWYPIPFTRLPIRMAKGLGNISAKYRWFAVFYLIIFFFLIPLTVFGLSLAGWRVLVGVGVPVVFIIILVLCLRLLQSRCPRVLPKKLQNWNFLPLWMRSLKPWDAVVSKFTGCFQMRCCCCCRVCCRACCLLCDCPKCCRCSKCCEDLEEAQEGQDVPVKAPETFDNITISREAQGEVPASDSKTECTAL


Columns and labels:
mouse SLC34A2 = target: T1, mouse SLC34A2; experiment: FACS, HEK293/Mouse SLC34A2 cells
Rhesus SLC34A2 [1] = target: T2, Rhesus SLC34A2; experiment: FACS, HEK293/Rhesus SLC34A2 cells
human SLC34A2 [2] = target: T3, human SLC34A2; experiment: FACS, OVCAR3 cells
Method in brief: (§1)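 Cell-surface binding by flow cytometry: hu Abs on SLC34A2-expressing cells, 60 min at 4° C.; 2× FACS buffer wash; fluorescent-conjugated secondary 30 min at 4° C.; 2× wash, then acquisition.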

human SLC34A2 [3] = target: T3, human SLC34A2; experiment: FACS, RMG-1 cells
Method in brief: as §1

human SLC34A2 [4] = target: T3, human SLC34A2; experiment: cell-based or functional assay
Rhesus SLC34A2 [5] = target: T2, Rhesus SLC34A2; experiment: FACS, HEK293/Rhesus SLC34A2 cells; remark: listed apart in the source
human SLC34A2 [6] = target: T3, human SLC34A2; experiment: FACS, HEK293/human SLC34A2 cells
Method in brief: as §1

human SLC34A2 [7] = target: T3, human SLC34A2; experiment: FACS, HEK293/human SLC34A2 cells; remark: listed apart in the source
Experimental: Briefly, OVCAR3 cells or HEK293 cells expressing human SLC34A2 were incubated with chimeric antibodies (from 200 nM, 4 folds dilution, 8 points). After incubation at 4° C. for 60 minutes, the cells were washed with FACS buffer twice, then stained with fluorescent conjugated secondary antibody at 4° C. for 30 minutes. After that the cells were washed twice and analyzed by flow cytometry.

| Binder | EC50 (mouse SLC34A2) [nM] | EC50 (Rhesus SLC34A2 [1]) [nM] | Top (MFI) (Rhesus SLC34A2 [1]) | EC50 (human SLC34A2 [2]) [nM] | Top (human SLC34A2 [2]) [MFI] | EC50 (human SLC34A2 [3]) [nM] | Top (human SLC34A2 [3]) [MFI] | ADCC reporter EC50 (human SLC34A2 [4]) [nM] | ADCC reporter Top (MFI) (human SLC34A2 [4]) | EC50 (Rhesus SLC34A2 [5]) [nM] | EC50 (human SLC34A2 [6]) [nM] | Top (human SLC34A2 [6]) [MFI] | EC50 (human SLC34A2 [7]) [nM] | Top (MFI) (human SLC34A2 [7]) |
| --- | --- | --- | --- | --- | --- | --- | --- | --- | --- | --- | --- | --- | --- | --- |
| 91C9F1.p1.z7 hIgG1 (antibody, V domains shown, humanized hIgG1) VH: QVQLVQSGAEVKKPGSSVKVSCKTSGFFFTEYIIHWVRQAPGQGLEWIGGIIPNNDVTNYKQNFRGRVTLTADKSTSTAYMELSSLRSEDTAVYYCARWRNAYYSAMDSWGQGTTVTVSS VL: DIQVTQSPSSLSTSVGDRVTITCTASQDVGTAVAWYQQKPGKSPKLLIYWASTRHTGVPERFTGSGSGTDFTLTISSVQPEDVATYFCQQYRTSPLTFGVGTKVEIK | 3.34 | 4.2 | 9500 | 2.41 | 20500 | 2.25 | 9720 | 2.12 | 124000 | 4.2 | 1.67 | 37400 |  |  |
| 30H9B8F9.p1.z5 hIgG1 (antibody, V domains shown, humanized hIgG1) VH: QVQLVQSGAEVKKPGASVKVSCKTSGYTFTTNNMHWVRQAPGQGLEWIGAIYPGSGATAYNQKFKGRVTMTADTSTSTVYMELSSLRSEDTAVYYCARGMYGHGAMDYWGQGTLVTVSS VL: DIQLTQSPSFLSASVGDRVTITCKASQDVGTAVAWYQQKPGKAPKLLIYWATTRHSGVPSRFSGSGSGTEFTLTISSLQPEDFATYYCQQYSSNPLTFGQGTKLEIK | 2.06 | 0.7 | 16000 | 0.94 |  | 1.39 | 10900 | 0.72 | 135000 | 0.7 | 1.55 | 35200 |  |  |
| xi63A11D5B4 hIgG1 (antibody, V domains shown, chimeric, hIgG1) VH: QVQLQQPGAELVKPGASVKMSCRTSGYTFITYNMHWVKQTPGQGREWIGAIYPGNGDTSYNQKFKGKATLTADKSSSTAYMQLNSLTSEDSAVYYCSISTIITTGAVDYWGQGTSVTVAS VL: DIVMTQSHKFMSTSVGDRVSITCKASQDVGTAVAWYQQKAGQSPKLLIYWTSTRHTGVPDRFTGSGSGTDFTLIIRSLQSEDLADYFCQQYSRIPLTFGSGTKLEIK |  | 2.3 | 15200 | 10.5 |  | 14.4 | 11200 |  |  |  | 5.21 | 35600 | 1.5 | 103000 |
| 63A11D5B4.p1.z9 hIgG1 (antibody, V domains shown, humanized hIgG1) VH: QVQLVQSGAEVVKPGASVKMSCKTSGYTFITYNMHWVRQAPGQGLEWIGAIYPGSGDTSYNQKFKGRVTLTADKSTSTAYMELSSLRSEDTAVYYCSISTIITTGAVDYWGQGTLVTVSS VL: DIQMTQSPSSLSASVGDRVTITCKASQDVGTAVAWYQQKPGKVPKLLIYWTSTRHTGVPSRFSGSGSGTDFTLTISSLQPEDVATYYCQQYSRIPLTFGGGTKVEIK | 5.38 | 1.6 | 11800 | 9.12 |  | 28.3 | 12200 | 1.69 | 116000 | 1.6 | 5.49 | 36800 |  |  |
| 62G10E4G8.p3.z15 hIgG1 (antibody, V domains shown, humanized hIgG1) VH: QVQLVQSGAEVVKPGASVKMSCKASGYTFPSYITHWVKQAPGQGLEWIGAIYPGNADTSYIQKFKGRATLTADKSTSTAYMELSSLRSEDTAVYYCARGTYGTSAWFTYWGQGTLVTVSS VL: EIVLTQSPATLSVSPGERATLSCRARQNIGNNLYWYQQKPGQSPRLLIKYASQSISGIPSRFSGSGSGTDFTLTISSLQSEDFAVYFCQQSFSWPLTFGQGTKLEIK | 5.74 | 1.4 | 14400 | 3.76 |  | 3.69 | 10800 | 5.39 | 123000 | 1.4 | 2.34 | 33600 |  |  |
| xi62G10E4G8 hIgG1 (antibody, V domains shown, chimeric, hIgG1) VH: QVQLQQSGAEVVKPGASVKMSCKASGYTFPSYITHWVKQTPGQGLEWIGAIYPGNGDTSYIQKFKGKATLTADKSSSTAYMQLSSLTSEDSAVYYCARGTYGTSAWFTYWGQGTLVTVSA VL: DIVLTQSPATLSVTPGDSVSLSCRARQNIGNNLYWYQQKSHESPRLLIKYASQSISGIPSRFSGSGSGTDFTLTINSVETEDFGVYFCQQSFSWPLTFGAGTKLELK |  | 1.8 | 13300 | 3.73 |  | 7.97 | 11300 | 4.56 | 101000 |  | 4.26 | 32700 | 1.28 | 101000 |
| xi30H9B8F9 hIgG1 (antibody, V domains shown, chimeric, hIgG1) VH: QVQLQQPGAELVKPGASVKMSCKTSGYTFTTNNMHWVKQTPGQGLEWIGAIYPGNGATAYNQKFKGKATLTADKSSSTAYMQLSSLTSEASAVYYCARGMYGHGAMDYWGQGTSVIVSS VL: DIVMTQSHKFMSRSVGDRVRITCKASQDVGTAVAWYQQKPGQSPKLLIYWATTRHSGVPDRFTGSGSGTDFIFTISNVQSEDLADYFCQQYSSNPLTFGAGTKLELK |  | 0.9 | 17400 | 0.74 |  | 1.19 | 11500 | 1.26 | 109000 |  | 1.63 | 40800 | 0.96 | 107000 |
| xi91C9F1 hIgG1 (antibody, V domains shown, chimeric, hIgG1) VH: EVQLQQSGPELVKPGTSVKISCKTSGFFFTEYIIHWVKQSHGRSLEWIGGIIPNNGVTNYKQNFRGKAALTADKSSNTAYMELRSLTSEDSAVYYCARWRNGYYSAMDSWGQGTSVTVSS VL: DIVVTQSHKFMSTSLGDRVSITCTASQDVGTAVAWYQQKPGHSPKLLIYWASTRHTGVPERFTGSGSGTDFTLTITNVQSEDLADYFCQQYRTSPLTFGVGTKLELK |  | 1.2 | 11400 | 2.5 | 21000 | 1.76 | 9730 | 1.96 | 133000 |  | 1.77 | 32100 | 1.06 | 44800 |
